Data: IntAct's records for PubMed 35512704

B1: Speckle-type POZ protein (Homo sapiens), O43791 (parent)
chain: MSRVPSPPPPAEMSSGPVAESWCYTQIKVVKFSYMWTINNFSFCREEMGEVIKSSTFSSGANDKLKWCLRVNPKGLDEESKDYLSLYLLLVSCPKSEVRAKFKFSILNAKGEETKAMESQRAYRFVQGKDWGFKKFIRRDFLLDEANGLLPDDKLTLFCEVSVVQDSVNISGQNTMNMVKVPECRLADELGGLWENSRFTDCCLCVAGQEFQAHKAILAARSPVFSAMFEHEMEESKKNRVEINDVEPEVFKEMMCFIYTGKAPNLDKMADDLLAAADKYALERLKVMCEDALCSNLSVENAAEILILADLHSADQLKTQAVDFINYHASDVLETSGWKSMVVSHPHLVAEAYRSLASAQCPFLGPPRKRLKQS

Variants of: B1
Settings: with rptor_human RPTOR

Variant | effect of a mutation on the interaction
Y87C | with no effect

Variants of: B1
Settings: with rxra_human RXRA

Variant | effect of a mutation on the interaction
Y87C | with no effect

Variants of: B1
Settings: with sdha_human SDHA

Variant | effect of a mutation on the interaction
Y87C | with no effect

Variants of: B1
Settings: with setbp_human SETBP1, Q9Y6X0

Variant | effect of a mutation on the interaction
Y87C | with no effect

Variants of: B1
Settings: with setb1_human SETDB1, Q15047

Variant | effect of a mutation on the interaction
Y87C | with no effect

Variants of: B1
Settings: with skp2_human SKP2, Q13309
Sequence of skp2_human SKP2, Q13309 (Q13309 whole entry): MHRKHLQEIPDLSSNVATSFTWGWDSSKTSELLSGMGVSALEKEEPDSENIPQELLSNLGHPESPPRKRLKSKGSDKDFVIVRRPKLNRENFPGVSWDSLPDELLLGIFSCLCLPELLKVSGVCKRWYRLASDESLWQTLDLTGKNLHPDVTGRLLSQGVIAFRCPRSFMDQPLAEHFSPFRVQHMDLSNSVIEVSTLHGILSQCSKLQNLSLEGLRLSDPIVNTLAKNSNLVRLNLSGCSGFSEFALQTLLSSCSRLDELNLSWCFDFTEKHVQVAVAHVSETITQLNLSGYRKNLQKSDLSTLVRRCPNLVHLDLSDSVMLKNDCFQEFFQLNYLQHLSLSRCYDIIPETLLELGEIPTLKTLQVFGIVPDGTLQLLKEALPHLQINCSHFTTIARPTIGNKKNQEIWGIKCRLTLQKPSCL

Variant | effect of a mutation on the interaction
Y87C | with no effect

Variants of: B1
Settings: with smad1_human SMAD1, Q15797
Sequence of smad1_human SMAD1, Q15797 (Q15797 whole entry): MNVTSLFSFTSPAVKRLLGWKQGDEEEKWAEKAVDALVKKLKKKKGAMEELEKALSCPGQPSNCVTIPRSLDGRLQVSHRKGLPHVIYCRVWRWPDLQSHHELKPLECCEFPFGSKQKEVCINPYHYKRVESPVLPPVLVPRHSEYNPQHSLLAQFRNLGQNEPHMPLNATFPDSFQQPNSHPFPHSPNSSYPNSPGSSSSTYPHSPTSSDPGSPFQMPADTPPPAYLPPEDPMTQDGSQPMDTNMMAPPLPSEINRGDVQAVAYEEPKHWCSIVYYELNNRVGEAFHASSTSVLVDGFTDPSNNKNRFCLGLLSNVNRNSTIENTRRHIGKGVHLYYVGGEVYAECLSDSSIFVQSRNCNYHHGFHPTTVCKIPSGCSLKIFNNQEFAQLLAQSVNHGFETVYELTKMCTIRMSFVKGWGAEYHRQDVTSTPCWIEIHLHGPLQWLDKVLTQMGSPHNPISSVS

Variant | effect of a mutation on the interaction
Y87C | with no effect

Variants of: B1
Settings: with smca4_human SMARCA4, P51532

Variant | effect of a mutation on the interaction
Y87C | with no effect

Variants of: B1
Settings: with snf5_human SMARCB1, Q12824

Variant | effect of a mutation on the interaction
Y87C | with no effect

Variants of: B1
Settings: with smo_human SMO

Variant | effect of a mutation on the interaction
Y87C | with no effect

Variants of: B1
Settings: with smuf1_human SMURF1, Q9HCE7
Sequence of smuf1_human SMURF1, Q9HCE7 (Q9HCE7 whole entry): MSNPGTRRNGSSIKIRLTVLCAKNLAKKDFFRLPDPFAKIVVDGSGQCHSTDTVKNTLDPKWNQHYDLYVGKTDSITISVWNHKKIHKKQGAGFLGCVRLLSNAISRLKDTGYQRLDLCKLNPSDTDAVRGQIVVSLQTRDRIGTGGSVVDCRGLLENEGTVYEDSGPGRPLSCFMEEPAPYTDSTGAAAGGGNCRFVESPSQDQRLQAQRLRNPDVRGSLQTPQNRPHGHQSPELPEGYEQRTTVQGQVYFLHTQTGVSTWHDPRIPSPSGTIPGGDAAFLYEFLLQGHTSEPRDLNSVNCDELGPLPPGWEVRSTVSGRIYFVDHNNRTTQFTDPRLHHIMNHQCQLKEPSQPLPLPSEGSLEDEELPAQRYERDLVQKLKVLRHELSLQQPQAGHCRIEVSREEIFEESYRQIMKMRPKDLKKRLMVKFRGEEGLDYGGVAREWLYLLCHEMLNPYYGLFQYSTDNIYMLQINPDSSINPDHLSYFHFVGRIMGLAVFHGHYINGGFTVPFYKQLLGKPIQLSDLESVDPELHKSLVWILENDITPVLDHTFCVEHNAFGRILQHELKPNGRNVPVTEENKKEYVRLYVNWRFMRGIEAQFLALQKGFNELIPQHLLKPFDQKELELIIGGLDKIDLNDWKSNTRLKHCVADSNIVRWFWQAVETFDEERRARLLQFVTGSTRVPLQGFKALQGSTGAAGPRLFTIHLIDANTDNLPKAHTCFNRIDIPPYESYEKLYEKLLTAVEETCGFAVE

Variant | effect of a mutation on the interaction
Y87C | with no effect

Variants of: B1
Settings: with socs1_human SOCS1, O15524
Sequence of socs1_human SOCS1, O15524 (O15524 whole entry): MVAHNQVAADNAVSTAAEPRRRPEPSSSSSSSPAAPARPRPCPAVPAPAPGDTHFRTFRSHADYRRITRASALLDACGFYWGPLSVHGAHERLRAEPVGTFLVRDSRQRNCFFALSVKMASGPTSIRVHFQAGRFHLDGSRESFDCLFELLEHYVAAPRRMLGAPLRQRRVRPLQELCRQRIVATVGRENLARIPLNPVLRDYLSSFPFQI

Variant | effect of a mutation on the interaction
Y87C | with no effect

Variants of: B1
Settings: with sox10_human SOX10, P56693

Variant | effect of a mutation on the interaction
Y87C | with no effect

Variants of: B1
Settings: with sox2_human SOX2, P48431

Variant | effect of a mutation on the interaction
Y87C | with no effect

Variants of: B1
Settings: with src_human SRC

Variant | effect of a mutation on the interaction
Y87C | with no effect

Variants of: B1
Settings: with whr1_human WHR1, P49842
Sequence of whr1_human WHR1, P49842 (P49842 whole entry): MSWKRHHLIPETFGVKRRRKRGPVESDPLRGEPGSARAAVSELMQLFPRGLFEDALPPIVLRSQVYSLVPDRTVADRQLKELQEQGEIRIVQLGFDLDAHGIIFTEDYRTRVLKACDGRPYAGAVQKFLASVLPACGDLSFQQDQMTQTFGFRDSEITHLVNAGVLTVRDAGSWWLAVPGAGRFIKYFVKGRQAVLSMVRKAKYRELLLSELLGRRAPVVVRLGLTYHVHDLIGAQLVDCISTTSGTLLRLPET

Variant | effect of a mutation on the interaction
Y87C | with no effect

Variants of: B1
Settings: with stk38_human STK38, Q15208
Sequence of stk38_human STK38, Q15208 (Q15208 whole entry, looked up): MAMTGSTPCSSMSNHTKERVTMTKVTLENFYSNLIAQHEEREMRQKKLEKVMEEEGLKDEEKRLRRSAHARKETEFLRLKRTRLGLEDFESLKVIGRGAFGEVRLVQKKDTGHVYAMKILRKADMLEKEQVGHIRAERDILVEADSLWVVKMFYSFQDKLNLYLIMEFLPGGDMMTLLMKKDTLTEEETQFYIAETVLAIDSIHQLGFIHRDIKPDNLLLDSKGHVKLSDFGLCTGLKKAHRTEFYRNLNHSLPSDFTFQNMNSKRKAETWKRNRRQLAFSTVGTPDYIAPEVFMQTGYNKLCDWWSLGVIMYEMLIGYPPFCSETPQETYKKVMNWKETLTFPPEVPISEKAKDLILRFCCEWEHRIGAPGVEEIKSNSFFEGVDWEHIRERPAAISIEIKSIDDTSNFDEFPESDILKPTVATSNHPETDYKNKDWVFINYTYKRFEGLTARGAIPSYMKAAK

Variant | effect of a mutation on the interaction
Y87C | with no effect

Variants of: B1
Settings: with eloc_human ELOC

Variant | effect of a mutation on the interaction
Y87C | with no effect

Variants of: B1
Settings: with tfe2_human TCF3, P15923
Sequence of tfe2_human TCF3, P15923 (P15923 whole entry): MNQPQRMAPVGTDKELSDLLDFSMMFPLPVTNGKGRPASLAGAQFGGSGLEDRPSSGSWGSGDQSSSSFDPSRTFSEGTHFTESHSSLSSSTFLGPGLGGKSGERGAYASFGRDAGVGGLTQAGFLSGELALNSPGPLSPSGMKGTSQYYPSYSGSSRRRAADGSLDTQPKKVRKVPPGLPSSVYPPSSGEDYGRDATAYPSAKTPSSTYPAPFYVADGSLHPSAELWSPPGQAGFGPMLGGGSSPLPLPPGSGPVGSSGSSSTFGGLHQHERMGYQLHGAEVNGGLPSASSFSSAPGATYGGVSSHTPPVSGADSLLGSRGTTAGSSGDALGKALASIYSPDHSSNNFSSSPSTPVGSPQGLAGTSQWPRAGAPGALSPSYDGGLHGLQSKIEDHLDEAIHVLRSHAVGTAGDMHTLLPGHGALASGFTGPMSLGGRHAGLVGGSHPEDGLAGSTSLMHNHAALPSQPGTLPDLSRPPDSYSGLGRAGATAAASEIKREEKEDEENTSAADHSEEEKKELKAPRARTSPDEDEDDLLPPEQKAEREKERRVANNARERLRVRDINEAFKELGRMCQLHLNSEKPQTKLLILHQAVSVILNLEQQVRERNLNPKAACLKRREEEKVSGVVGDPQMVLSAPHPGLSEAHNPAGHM

Variant | effect of a mutation on the interaction
Y87C | with no effect

Variants of: B1
Settings: with tead1_human TEAD1, P28347
Sequence of tead1_human TEAD1, P28347 (P28347 whole entry): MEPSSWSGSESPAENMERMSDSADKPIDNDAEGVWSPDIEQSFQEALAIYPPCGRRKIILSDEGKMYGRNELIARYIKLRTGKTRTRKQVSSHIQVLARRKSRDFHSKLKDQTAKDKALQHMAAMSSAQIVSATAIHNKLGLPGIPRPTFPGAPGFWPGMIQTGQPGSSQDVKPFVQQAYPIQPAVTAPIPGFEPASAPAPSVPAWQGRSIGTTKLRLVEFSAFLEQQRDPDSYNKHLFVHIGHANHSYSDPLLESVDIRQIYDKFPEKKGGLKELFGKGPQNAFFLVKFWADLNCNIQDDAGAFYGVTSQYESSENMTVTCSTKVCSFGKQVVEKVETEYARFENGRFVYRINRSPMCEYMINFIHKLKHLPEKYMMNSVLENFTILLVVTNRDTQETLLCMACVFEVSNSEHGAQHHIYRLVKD

Variant | effect of a mutation on the interaction
Y87C | with no effect

Variants of: B1
Settings: with tead3_human TEAD3, Q99594
Sequence of tead3_human TEAD3, Q99594 (Q99594 whole entry): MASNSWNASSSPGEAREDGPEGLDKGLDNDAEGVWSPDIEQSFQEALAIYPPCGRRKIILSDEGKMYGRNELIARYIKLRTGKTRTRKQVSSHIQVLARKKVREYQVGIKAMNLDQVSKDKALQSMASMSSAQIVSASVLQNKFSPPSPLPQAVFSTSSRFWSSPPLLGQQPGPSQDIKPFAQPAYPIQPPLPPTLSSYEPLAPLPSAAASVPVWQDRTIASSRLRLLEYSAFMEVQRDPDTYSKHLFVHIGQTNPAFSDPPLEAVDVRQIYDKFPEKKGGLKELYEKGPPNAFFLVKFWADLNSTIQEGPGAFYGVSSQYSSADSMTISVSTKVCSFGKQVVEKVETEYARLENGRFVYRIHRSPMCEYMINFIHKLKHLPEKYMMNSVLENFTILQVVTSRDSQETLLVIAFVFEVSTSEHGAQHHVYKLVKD

Variant | effect of a mutation on the interaction
Y87C | with no effect

Variants of: B1
Settings: with tead4_human TEAD4, Q15561
Sequence of tead4_human TEAD4, Q15561 (Q15561 whole entry): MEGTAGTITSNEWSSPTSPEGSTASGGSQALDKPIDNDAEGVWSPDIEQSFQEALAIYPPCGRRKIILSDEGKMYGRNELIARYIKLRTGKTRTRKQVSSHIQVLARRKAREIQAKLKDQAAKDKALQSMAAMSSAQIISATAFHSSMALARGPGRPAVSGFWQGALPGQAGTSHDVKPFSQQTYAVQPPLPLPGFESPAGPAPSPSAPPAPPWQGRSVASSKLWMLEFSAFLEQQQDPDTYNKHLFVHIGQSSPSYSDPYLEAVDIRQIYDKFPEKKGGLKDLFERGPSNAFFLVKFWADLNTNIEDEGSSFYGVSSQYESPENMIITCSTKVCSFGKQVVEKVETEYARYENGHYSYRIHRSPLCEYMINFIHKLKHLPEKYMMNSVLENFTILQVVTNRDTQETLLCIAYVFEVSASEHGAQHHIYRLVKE

Variant | effect of a mutation on the interaction
Y87C | with no effect

Variants of: B1
Settings: with tet2_human TET2, Q6N021

Variant | effect of a mutation on the interaction
Y87C | with no effect

Variants of: B1
Settings: with tgfr2_human TGFBR2, P37173

Variant | effect of a mutation on the interaction
Y87C | with no effect

Variants of: B1
Settings: with tnr14_human TNFRSF14, Q92956

Variant | effect of a mutation on the interaction
Y87C | with no effect

Variants of: B1
Settings: with tsc2_human TSC2, P49815

Variant | effect of a mutation on the interaction
Y87C | with no effect

Variants of: B1
Settings: with tshr_human TSHR

Variant | effect of a mutation on the interaction
Y87C | with no effect

Variants of: B1
Settings: with vegfa_human VEGFA

Variant | effect of a mutation on the interaction
Y87C | with no effect

Variants of: B1
Settings: with vhl_human VHL

Variant | effect of a mutation on the interaction
Y87C | with no effect

Variants of: B1
Settings: with wee1_human WEE1, P30291

Variant | effect of a mutation on the interaction
Y87C | with no effect

Variants of: B1
Settings: with wwtr1_human WWTR1, Q9GZV5
Sequence of wwtr1_human WWTR1, Q9GZV5 (Q9GZV5 whole entry): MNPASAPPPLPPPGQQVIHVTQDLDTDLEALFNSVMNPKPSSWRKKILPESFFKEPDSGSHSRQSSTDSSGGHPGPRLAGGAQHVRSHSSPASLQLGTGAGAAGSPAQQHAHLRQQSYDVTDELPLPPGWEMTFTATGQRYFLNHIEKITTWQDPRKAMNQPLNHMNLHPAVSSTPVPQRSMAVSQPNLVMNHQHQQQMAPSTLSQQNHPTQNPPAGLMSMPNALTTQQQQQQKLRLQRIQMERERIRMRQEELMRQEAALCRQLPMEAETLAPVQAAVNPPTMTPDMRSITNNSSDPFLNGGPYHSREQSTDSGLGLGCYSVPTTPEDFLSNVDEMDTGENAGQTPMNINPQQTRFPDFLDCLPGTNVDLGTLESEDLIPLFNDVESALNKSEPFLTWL

Variant | effect of a mutation on the interaction
Y87C | with no effect

Variants of: B1
Settings: with xpo1_human XPO1, O14980

Variant | effect of a mutation on the interaction
Y87C | with no effect

Variants of: B1
Settings: with il7ra_human IL7R

Variant | effect of a mutation on the interaction
Y87C | increasing interaction strength
